This note sets out measurements from patent US20150064177A1 (ELAN PHARMACEUTICALS, published 2015).

In the experiment the target is T1, human α4β1 integrin (human, UniProt P13612 34-1032; P05556 21-798).
T1 construct: whole, on cells; In the ELISA it is on transformed L cells; In the adhesion assays it is on human U937 monocytic cells and human Jurkat T cells; also called VLA-4; alpha-4-beta-1 integrin
The experiment is described as follows: cell ELISA of crude Cos supernatants on L cells expressing α4β1 integrin. Background: An ELISA detects its analyte on a solid surface through an enzyme-linked reagent.

Method: Briefly, L cells transformed to express a4β1 integrin on their cell surface were plated out and grown to confluence in 96-well tissue culture plates. The samples to be tested (either crude supernatants or protein-A-purified) were serially diluted and added to each well. After incubation for 1 h on ice and very gentle washing, goat anti-mouse or anti-human (gamma-chain specific) peroxidase conjugates (Sigma) were added. After a further 1 h incubation on ice and very gentle washing, the substrate (o-phenylenediamine dihydrochloride, Sigma) was added. After incubation for 30 min at room temperature, the reaction was stopped by adding 1 M H₂SO₄, and the A₄₉₀ was measured.

B1: reshaped human 21.6 antibody (La+Ha) (antibody, human IgG1, V domains shown)
VH: QVQLVQSGAEVKKPGASVKVSCKASGFNIKDTYIHWVRQAPGQRLEWMGRIDPANGYTKYDPKFQGRVTITADTSASTAYMELSSLRSEDTAVYYCAREGYYGNYGVYAMDYWGQGTLVTVSS
VL: DIQMTQSPSSLSASVGDRVTITCKTSQDINKYMAWYQQTPGKAPRLLIHYTSALQPGIPSRFSGSGSGRDYTFTISSLQPEDIATYYCLQYDNLWTFGQGTKVEIK
notes: Human IgG1 kappa, expressed in Cos cells; not shown: human gamma-1 heavy chain constant region; human kappa light chain constant region
For the molecule B1, the binding result was “binds”.
